The subject of series [1] is total transcripts of P. aeruginosa. Put plainly: Transcriptome profile comparison of AS1974-transformed and control strains (off-target effect). It counts as cell-based. Conditions: AS1974-transformed vs control strains.
The subject of series [2] is AS1974 target genes (mexD, chtA, prc, major facilitator superfamily, pilD, ndvB). In words: Real-time qPCR of AS1974 target genes in AS1974-overexpressing resistance strain. It counts as cell-based, P. aeruginosa. Particulars: R3-AS1974 vs R3-EV (empty vector). How it is done: One of the major functions of sRNAs is to suppress the target gene expression under particular conditions or in response to external stimuli. To find out the regulatory roles of AS1974 sRNAs in various drug resistance pathways, the inventors sequenced the transcriptomes of six strains, and they used newly developed program to correlate sRNA repertoires with transcriptomes. […] To validate the transcriptome result, real-time qPCR experiments were performed to measure and compare the transcript levels of these genes in both drug-susceptible and drug-resistant strains.
To further investigate if these drug-resistant genes were directly controlled by this sRNA, AS1974 was overexpressed in the resistance strain and their transcript levels were measured by qPCR. Empty vector was used as a negative control. […]
Six P. aeruginosa strains, S1, S2, S3, R1, R2, and R3, were grown at 37° C. overnight in nutrient broth with shaking at 250 rpm and harvested at stationary phase (OD600=1.5-1.7). […] Melting curves were determined by an auto-dissociation program. […] The results were expressed as the means of at least 3 independent experiments. Data are presented as mean±SD, and comparisons were analyzed using unpaired t test (two tailed: *p<0.05, **p<0.01, and ***p<0.001).

In series [3] the test system is resistance strains of P. aeruginosa (R3). Put plainly: MIC measurement (microbroth dilution) of resistance strain overexpressing sRNA. Conditions: transformed R3 strain. Format: cell-based. An excerpt:
Different classes of antibiotics including aminoglycoside, cephalosporin, beta-lactam, extended-spectrum penicillin beta-lactam, fluoroquinolone were used. Antibiotics susceptibility and resistance strains are highlighted. R3-AS1974, R3-AS2779 and R3-IGR2780 represent R3 strains transformed with the corresponding sRNA while R3-AS1974-Reverse represents R3 strains transformed the sRNA which sequence was reverse and complementary to AS1974 (negative control). R3-empty vector was used as vector control. The strain ATCC27853 was used for quality control.
To find out if the sRNAs directly play a role in the intrinsic drug resistance of bacteria, each of the sRNAs was overexpressed in the resistance strains of P. aeruginosa, and MIC measurements were performed. […]
The MICs of 11 antibiotics, including penicillin G, cefotaxime, chloramphenicol, tetracycline, erythromycin, lincomycin, ciprofloxacin (Sigma, St. Louis, Mo., USA), levofloxacin (Daiichi Sankyo, Tokyo, Japan), gatifloxacin (Bristol-Myers Squibb, Moreton, UK), moxifloxacin (Bayer Healthcare Pharmaceuticals, Berlin, Germany), and linezolid (Pfizer, NJ, USA), were determined using the microbroth dilution method, according to the Clinical and Laboratory Standards Institute (CLSI). […]
(In general: Dilution methods test growth across graded concentrations, often in twofold steps.)

“Also recorded” adds a separate entry of the source.

B1: AS1974: sRNA of P. aeruginosa, SEQ ID NO: 2, located at the antisense region of mexR (nucleic acid, listed as Pseudomonas aeruginosa)
chain: GAATGTTCTTAAATATCCTCAAGCGGTTGCGCGGCCAGGCACTGGTCGAGGAGATGCACCAGGGTGGCCTGTTCCACCGGGGTGAGCGGGGCAAACAACTCGTCATGCACGCGTGACATGATGGCCTC
Consider B1, for which, in series [1], the “total transcripts affected (off-target effect)” value is on record as “less than 1%”. The “target gene expression upon overexpression of sRNA” value in series [2] is “downregulated”. For the same molecule, in series [3] (chloramphenicol), the “resistance of the AS1974-overexpressed strain to chloramphenicol” value was “still showed resistance”. Also, the “effect of sRNA overexpression on MIC / antibiotic susceptibility of the resistance strain” value in series [3] (aminoglycoside, cephalosporin, meropenem, ertapenem, empty vector control) is given as “hypersusceptibility; also recorded: transformed the bacteria from resistant strains to drug-sensitive strains”.
